Measured values from patent US20130209489A1 (Amgen, published 2013).

How the values were obtained:
Activin AB = biological target: T1, Activin AB (UniProt P08476 311-426; P09529 293-407); assay: Biacore SPR, ligand flowed over immobilized antibody
T1 construct: the two chains follow from the usual meaning of Activin AB
T1 sequence (looked up) 1: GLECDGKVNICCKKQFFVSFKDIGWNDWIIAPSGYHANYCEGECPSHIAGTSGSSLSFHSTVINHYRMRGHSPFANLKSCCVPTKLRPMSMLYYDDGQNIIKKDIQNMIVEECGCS
T1 sequence (looked up) 2: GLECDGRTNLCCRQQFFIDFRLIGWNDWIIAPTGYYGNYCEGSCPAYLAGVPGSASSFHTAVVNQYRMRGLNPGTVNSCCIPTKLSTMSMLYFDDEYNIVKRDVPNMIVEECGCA
Experimental: (§1) Binding specificity analysis was carried out for 12A5-5 using Biacore™, a label-free surface plasmon resonance (SPR) based technology for studying biomolecular interactions in real time (GE Healthcare, Chalfont St. Giles, UK). 12A5-5, and ActRIIB/Fc were made in house, TGFbetaR11/Fc and BMPR-1A/Fc were from R & D Systems (Minneapolis, Minn.). […] Ten nanomolar of each of the ligands was flowed over immobilized high density antibody and receptor surfaces. Binding of Myostatin, GDF11, GDF3, Activin A, Activin AB, Activin AC, TGF-beta1, BMP4, BMP9, and BMP10 to their corresponding receptors was tested and used as control to normalize the signals of the ligands binding to 12A5-5 and the other receptors.

BMP9 = biological target: T2, BMP9 (UniProt Q9UK05 320-429); assay: as above
T2 sequence (looked up): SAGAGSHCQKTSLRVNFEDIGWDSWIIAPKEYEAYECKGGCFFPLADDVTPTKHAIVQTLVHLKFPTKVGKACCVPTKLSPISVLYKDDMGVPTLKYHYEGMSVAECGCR
Experimental: as §1

BMP4 = biological target: T3, BMP4 (UniProt P12644 293-408); assay: as above
T3 sequence (looked up): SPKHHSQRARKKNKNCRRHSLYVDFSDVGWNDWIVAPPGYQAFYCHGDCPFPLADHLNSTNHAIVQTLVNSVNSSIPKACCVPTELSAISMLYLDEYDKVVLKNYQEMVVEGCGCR
Experimental: as §1

TGF-beta1 = TGF-beta1 (UniProt P01137 279-390); assay: as above
Sequence of TGF-beta1 (P01137 279-390 limits assumed): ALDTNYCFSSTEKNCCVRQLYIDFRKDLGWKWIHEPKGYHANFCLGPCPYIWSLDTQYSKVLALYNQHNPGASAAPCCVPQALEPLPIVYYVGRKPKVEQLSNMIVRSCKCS
Experimental: as §1

GDF3 = biological target: T4, GDF3 (UniProt Q9NR23 251-364); assay: as above
T4 sequence (looked up): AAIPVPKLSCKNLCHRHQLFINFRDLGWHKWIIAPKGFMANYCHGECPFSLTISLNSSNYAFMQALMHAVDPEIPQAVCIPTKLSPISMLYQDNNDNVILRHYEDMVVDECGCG
Experimental: as §1

Activin AC = biological target: T5, Activin AC (UniProt P08476 311-426; P55103 237-352); assay: as above
T5 construct: the two chains follow from the usual meaning of Activin AC
T5 sequence (looked up) 1: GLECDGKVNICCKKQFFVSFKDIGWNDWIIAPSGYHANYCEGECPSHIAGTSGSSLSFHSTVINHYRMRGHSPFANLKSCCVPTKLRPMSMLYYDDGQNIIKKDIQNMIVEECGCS
T5 sequence (looked up) 2: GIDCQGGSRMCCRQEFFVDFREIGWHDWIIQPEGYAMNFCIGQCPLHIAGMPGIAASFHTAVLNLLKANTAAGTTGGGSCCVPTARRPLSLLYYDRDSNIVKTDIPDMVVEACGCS
Experimental: as §1

BMP10 = biological target: T6, BMP10 (UniProt O95393 317-424); assay: as above
T6 sequence (looked up): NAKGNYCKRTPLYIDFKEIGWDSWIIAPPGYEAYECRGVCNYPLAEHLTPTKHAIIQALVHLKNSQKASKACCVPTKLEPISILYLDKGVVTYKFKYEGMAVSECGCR
Experimental: as §1

Activin A = biological target: T7, Activin A (UniProt P08476 311-426); assay: as above
T7 sequence (looked up): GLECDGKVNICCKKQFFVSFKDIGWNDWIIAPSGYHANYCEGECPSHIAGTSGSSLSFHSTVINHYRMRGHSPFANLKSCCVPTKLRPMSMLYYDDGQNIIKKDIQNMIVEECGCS
Experimental: as §1

GDF11 = biological target: T8, GDF11 (UniProt O95390 299-407); assay: separate experiment, method not named (Biacore section)
T8 construct: also called growth and differentiation factor 11; BMP-11
T8 sequence (O95390 299-407 limits assumed): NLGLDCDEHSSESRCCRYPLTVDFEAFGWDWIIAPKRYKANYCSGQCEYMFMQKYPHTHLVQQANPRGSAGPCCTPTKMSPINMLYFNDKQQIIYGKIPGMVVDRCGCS

- Kd (GDF11): ~180 nM
B1: anti-myostatin neutralizing monoclonal antibody 12A5-5 (antibody, V domains shown)
VH: EVQLVESGGGLVQPGGSLRLSCAASGFTFSRYWMNWVRQAPGKGLEWVAQIRLKSDNYATHYAESVKGRFTISRDNAKNSLYLQMNSLRAEDTAVYYCTEGLDYWGQGTTVTVSS
VL: DIQMTQSPSSLSASVGDRVTITCKASQDINKYVAWYQQKPGKAPKLLIYYTSWLQPGVPSRFSGSGSGTDFTFTISSLQPEDIATYYCLQYDNLLYTFGQGTKLEIK
notes: in the KinExA assay it was detected with a goat anti-human-Fc antibody, so it carries a human Fc; also called Mab 12A5-5; MAb 12A5-5
- binding result (Activin AB): no binding (tested: Ten nanomolar of each of the ligands)
- binding result (BMP9): no binding (tested: Ten nanomolar of each of the ligands)
- binding result (BMP4): no binding (tested: Ten nanomolar of each of the ligands)
- binding result (TGF-beta1): no binding (tested: Ten nanomolar of each of the ligands)
- binding result (GDF3): no binding (tested: Ten nanomolar of each of the ligands)
- binding result (Activin AC): no binding (tested: Ten nanomolar of each of the ligands)
- binding result (BMP10): no binding (tested: Ten nanomolar of each of the ligands)
- binding result (Activin A): no binding (tested: Ten nanomolar of each of the ligands)
